Tests used:
Assay in all cases: EC50 of free RNA motif oligo competing protein binding to immobilised probe
CHERP = biological target: T1, CHERP (UniProt Q8IWX8)
T1 sequence: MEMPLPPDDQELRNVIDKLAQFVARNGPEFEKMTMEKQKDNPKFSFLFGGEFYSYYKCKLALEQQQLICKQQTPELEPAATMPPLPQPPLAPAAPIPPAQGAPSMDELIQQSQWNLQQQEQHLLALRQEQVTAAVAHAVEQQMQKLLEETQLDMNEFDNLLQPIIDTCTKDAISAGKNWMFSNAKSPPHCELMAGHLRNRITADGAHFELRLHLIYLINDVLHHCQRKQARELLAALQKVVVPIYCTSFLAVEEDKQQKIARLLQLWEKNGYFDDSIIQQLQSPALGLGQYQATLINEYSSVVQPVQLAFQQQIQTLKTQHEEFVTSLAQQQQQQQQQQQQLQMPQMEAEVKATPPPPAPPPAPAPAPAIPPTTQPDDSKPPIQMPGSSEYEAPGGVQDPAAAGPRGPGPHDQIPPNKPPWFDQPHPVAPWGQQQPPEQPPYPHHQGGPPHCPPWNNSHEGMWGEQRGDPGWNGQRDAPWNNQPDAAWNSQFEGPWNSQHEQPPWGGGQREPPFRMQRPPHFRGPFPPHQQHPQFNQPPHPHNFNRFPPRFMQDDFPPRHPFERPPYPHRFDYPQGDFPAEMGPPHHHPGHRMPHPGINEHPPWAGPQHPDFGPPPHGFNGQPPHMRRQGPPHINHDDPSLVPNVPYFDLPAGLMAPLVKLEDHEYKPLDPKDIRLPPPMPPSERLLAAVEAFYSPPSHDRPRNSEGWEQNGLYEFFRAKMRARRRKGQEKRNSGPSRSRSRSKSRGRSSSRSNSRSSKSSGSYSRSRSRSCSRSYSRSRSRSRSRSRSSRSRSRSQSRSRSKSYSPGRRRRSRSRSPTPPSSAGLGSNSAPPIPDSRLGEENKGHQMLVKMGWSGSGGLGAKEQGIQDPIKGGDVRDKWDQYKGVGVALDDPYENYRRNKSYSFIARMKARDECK
Summary of the method: (§1)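 HEK293-FT lysate (2.5 mg protein/well) was treated with free RNA oligos (0 nM to 30 μM) for 1 h at 4°C, then with the same oligos on NHS-Sepharose beads for 30 min at 4°C. Bound proteins were quantified by label-free LC-MS/MS relative to the control. EC50 came from a four-parameter log-logistic fit, and Kd is EC50 times a protein-dependent depletion factor.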

CPSF3 = biological target: T2, CPSF3 (UniProt Q9UKF6)
T2 sequence: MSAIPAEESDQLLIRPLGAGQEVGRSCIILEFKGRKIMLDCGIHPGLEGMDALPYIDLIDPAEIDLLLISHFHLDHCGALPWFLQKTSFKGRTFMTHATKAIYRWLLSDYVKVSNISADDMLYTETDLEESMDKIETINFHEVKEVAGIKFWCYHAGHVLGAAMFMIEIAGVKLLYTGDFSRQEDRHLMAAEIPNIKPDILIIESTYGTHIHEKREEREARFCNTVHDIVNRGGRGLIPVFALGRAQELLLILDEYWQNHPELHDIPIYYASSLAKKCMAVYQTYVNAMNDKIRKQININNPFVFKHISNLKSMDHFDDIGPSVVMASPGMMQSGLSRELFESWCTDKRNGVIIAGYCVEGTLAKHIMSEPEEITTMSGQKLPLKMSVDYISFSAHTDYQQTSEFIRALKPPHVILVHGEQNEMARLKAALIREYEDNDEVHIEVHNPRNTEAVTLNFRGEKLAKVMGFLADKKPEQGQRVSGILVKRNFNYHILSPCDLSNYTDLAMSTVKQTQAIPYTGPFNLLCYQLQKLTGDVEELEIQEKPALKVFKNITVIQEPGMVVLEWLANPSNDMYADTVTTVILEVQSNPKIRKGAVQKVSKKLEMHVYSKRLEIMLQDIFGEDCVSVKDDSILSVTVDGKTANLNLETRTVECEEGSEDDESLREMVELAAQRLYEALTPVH
Summary of the method: as §1

ZNF830 = biological target: T3, ZNF830 (UniProt Q96NB3)
T3 sequence: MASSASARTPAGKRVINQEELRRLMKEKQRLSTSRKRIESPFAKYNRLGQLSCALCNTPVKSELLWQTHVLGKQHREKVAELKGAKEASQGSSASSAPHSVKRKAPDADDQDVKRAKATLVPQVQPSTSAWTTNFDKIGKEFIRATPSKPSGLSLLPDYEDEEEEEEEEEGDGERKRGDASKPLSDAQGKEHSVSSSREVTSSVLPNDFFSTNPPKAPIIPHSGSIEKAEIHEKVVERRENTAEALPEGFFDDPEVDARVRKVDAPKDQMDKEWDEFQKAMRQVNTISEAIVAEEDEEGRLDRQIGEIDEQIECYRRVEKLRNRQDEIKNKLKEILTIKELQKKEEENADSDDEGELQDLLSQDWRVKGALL
Summary of the method: as §1

**Q.** Which results are given for AAUAAA?
**A.** EC50 (CHERP): 1050 nM; EC50 (CPSF3): 57.4 nM; EC50 (ZNF830): 1030 nM

**Q.** Which results are given for UAUUUAU?
**A.** EC50 (CHERP): 35.1 nM; EC50 (CPSF3): 598 nM; EC50 (ZNF830): 378 nM
